Article PMC7822688, “W196 and the β-Hairpin Motif Modulate the Redox Switch of Conformation and the Biomolecular Interaction Network of the Apoptosis-Inducing Factor” (Oxidative Medicine and Cellular Longevity, 2021)

Legend:
Conditions in all cases: both partners purified
W196A hAIF_(Δ1-101) [1] = target: T1, W196A hAIF_(Δ1-101) (human, UniProt O95831 102-613, W196A); experiment: ITC; Auto-iTC200, 25°C, 50 mM potassium phosphate, pH 7.4; 10-20 μM protein partner titrated into ~10 μM oxidized hAIF_(∆1-101) variant, without NADH; single-ligand binding site model
T1 construct: FAD holoprotein; 'ox' oxidized, 'CTC' after reduction with NADH; The His6 tag is called cleavable; whether it was cleaved is told only in the supplementary materials; also called W196Aox; source: E. coli C41 (DE3), purified to homogeneity (protocol in the supplementary materials)

[2] = target: T2, WT human apoptosis-inducing factor hAIF_(Δ1-101) (human, UniProt O95831 102-613); experiment: ITC; Auto-iTC200, 25°C, 50 mM potassium phosphate, pH 7.4; 10-20 μM protein partner titrated into ~10 μM hAIF_(∆1-101) variant in the CTC state (premixed with NADH at a 1 : 100 ratio); single-ligand binding site model
T2 construct: FAD holoprotein. 'ox' is the oxidized protein; 'CTC' is the same protein reduced by an excess of NADH (FADH-/NAD+ charge transfer complex); The His6 tag is called cleavable; whether it was cleaved is told only in the supplementary materials; also called WTox; source: protocol in the supplementary materials

W196Y hAIF_(Δ1-101) = target: T3, W196Y hAIF_(Δ1-101) (human, UniProt O95831 102-613, W196Y); experiment: as above
T3 construct: FAD holoprotein; 'ox' oxidized, 'CTC' after reduction with NADH; The His6 tag is called cleavable; whether it was cleaved is told only in the supplementary materials; also called W196Yox; W196Y CTC; source: E. coli C41 (DE3), purified to homogeneity (protocol in the supplementary materials)

W196A hAIF_(Δ1-101) [3] = target: T1, W196A hAIF_(Δ1-101); experiment: as above

T1 sequence (O95831 102-613 W196A): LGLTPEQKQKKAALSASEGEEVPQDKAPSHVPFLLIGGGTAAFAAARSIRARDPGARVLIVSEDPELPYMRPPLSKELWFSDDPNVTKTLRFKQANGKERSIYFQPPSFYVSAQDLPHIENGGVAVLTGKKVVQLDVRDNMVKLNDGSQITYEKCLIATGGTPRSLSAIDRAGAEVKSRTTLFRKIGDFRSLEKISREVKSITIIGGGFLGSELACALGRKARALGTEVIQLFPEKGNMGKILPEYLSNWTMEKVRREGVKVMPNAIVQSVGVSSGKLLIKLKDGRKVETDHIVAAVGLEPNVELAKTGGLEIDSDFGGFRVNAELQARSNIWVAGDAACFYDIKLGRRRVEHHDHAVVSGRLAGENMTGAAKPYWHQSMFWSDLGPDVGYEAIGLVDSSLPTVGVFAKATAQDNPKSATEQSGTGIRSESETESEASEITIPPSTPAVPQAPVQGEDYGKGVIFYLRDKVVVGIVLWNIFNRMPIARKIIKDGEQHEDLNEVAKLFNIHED
T3 sequence (O95831 102-613 W196Y): as the sequence (O95831 102-613 W196A) above, with A95Y counted along it
T2 sequence (O95831 102-613, stated change not applied): as the sequence (O95831 102-613 W196A) above, with A95W counted along it

Kd (W196A hAIF_(Δ1-101) [1]): 400 nM
dH (W196A hAIF_(Δ1-101) [1]): 9.6 kcal/mol
Kd (W196Y hAIF_(Δ1-101)): 2100 nM
dH (W196Y hAIF_(Δ1-101)): -8.2 kcal/mol
Kd (W196A hAIF_(Δ1-101) [3]): 500 nM
dH (W196A hAIF_(Δ1-101) [3]): -5.9 kcal/mol
B1: human CHCHD4 (coiled-coil-helix-coiled-coil-helix domain containing 4) (natural protein, UniProt Q8N4Q1 1-142, looked up)
chain: MSYCRQEGKDRIIFVTKEDHETPSSAELVADDPNDPYEEHGLILPNGNINWNCPCLGGMASGPCGEQFKSAFSCFHYSTEEIKGSDCVDQFRAMQECMQKYPDLYPQEDEDEEEEREKKPAEQAEETAPIEATATKEEEGSS
notes: human CHCHD4, UniProtKB Q8N4Q1; synthetic codon-optimised cDNA in pET28a (NdeI-NotI); The His6 tag is called cleavable; whether it was cleaved is told only in the supplementary materials; source: E. coli C41 (DE3), purified (protocol in the supplementary materials)
Kd [2]: 200 nM
dH [2]: -20.1 kcal/mol
